What was measured:
[1] = tested on: BMS human breast cancer cells; assay: Haptotactic tumor cell migration toward fibrinogen (transwell); assay type: cell-based; settings: 2 μM scFv, 16 hrs at 37° C.
Description: (§1) FIGS. 3A, 3B, 3C, 3D, 3E. scFv Bc-12 and Bc-15 inhibit αvβ3 mediated adhesive breast cancer cell functions. (A) Adhesion of BMS human breast cancer cells to fibrinogen (Fg), vitronectin (VN) or type I collagen (Col I) in the absence or presence of 3 μM Bc-12, Bc-15 or their RGE mutants Mut-12, Mut-15, compared to 200 μM GRGDSPK peptide (SEQ ID NO: 11). Protein coating concentrations: 10 μg/ml (VN, Col I) or 20 μg/ml (Fg). Adhesion time: 30 min at 37° C. (B) Effect of scFvs on haptotactic BMS cell migration toward a fibrinogen substrate (16 hrs at 37° C. in transwell chambers with or without 2 μM Bc-12, Bc-15 or their RGE mutants Mut-12 or Mut-15, compared to 200 μM GRGDSPK peptide) (SEQ ID NO: 11). (C) Effect of scFvs on breast cancer cell arrest during blood flow. Metastatic BMS cells, labeled with hydroethidine, were suspended in human blood (anticoagulated with 50 nM PPACK) and perfused over a collagen I matrix at a venous wall shear rate of 50 s^−1. Under these conditions, breast cancer cells arrest by αvβ3 mediated binding to adherent, thrombus forming platelets. Tumor cell adhesion was quantified by image acquisition at 30 predefined positions during blood flow. Left: representative images of platelet signal (thrombi, green fluorescence) and tumor cell signal (red fluorescence) at identical x,y positions. Right: Number of arrested tumor cells in the presence of 3 μM non-function blocking anti αv scFv Bc-20 or function blocking anti αvβ3 scFvs Bc-12 or Bc-15. (D) scFv Bc-15 is internalized by human breast cancer cells and reduces cell proliferation. Left: confocal images of BMS cells incubated for 4 hrs with FITC-Bc-15 at 4° C. (binding) versus 37° C. (allowing internalization). Right: Phase contrast images of BMS cell cultures 4 days after seeding in the presence of 2 μM RGE containing scFv Mut-15, or RGD containing Bc-15. […]
Cell adhesion and migration. Tumor cell adhesion under stationary conditions was analyzed as detailed earlier (19). […] Haptotactic tumor cell migration toward fibrinogen was analyzed in transwell chambers as detailed earlier. […]

BMS breast cancer cells = assay: Tumor cell arrest during blood flow; assay type: cell-based; settings: 3 μM scFv, human blood, collagen I matrix, shear rate 50 s^−1
Description: as §1, with “positions.” for “positions. Right: Number of arrested tumor cells in the presence of 3 μM non-function blocking anti αv scFv Bc-20 or function blocking anti αvβ3 scFvs Bc-12 or Bc-15. (D) scFv Bc-15 is internalized by human breast cancer cells and reduces cell proliferation. Left: confocal images of BMS cells incubated for 4 hrs with FITC-Bc-15 at 4° C. (binding) versus 37° C. (allowing internalization). Right: Phase contrast images of BMS cell cultures 4 days after seeding in the presence of 2 μM RGE containing scFv Mut-15, or RGD containing Bc-15.”
Tumor cell arrest during bloodflow. Breast cancer cell arrest during blood flow and interaction with platelets was measured as described. […] Adhesive events and cell interactions were visualized and recorded by fluorescence video microscopy and quantified by image acquisition at 30 predefined positions followed by computerized image analysis (MetaMorph, Universal Imaging). Tumor cells were stained with hydroethidine (red fluorescence) (20 μg/ml, 30 min, 37° C.), washed, and mixed with blood containing 10 μM mepacrine (green fluorescence). Blood cells, tumor cells, and platelets acquired green fluorescence and were visualized at 488/515 nm (excitation/emission). Tumor cells were identified by their unique red fluorescence at 543/590 nm. […]

B1: Bc-12: patient derived human scFv antibody against activated αvβ3 with RGD motif in CDR-H3; cDNA ATCC PTA-6303 (protein)
scFv: MAQVQLVQSGAEVKKPGASVKVSCKASGYTFSNYGITWVRQAPGQGLEWMGWINNGNTHYAQKFQGRVTMTTDTSTSTAYMELRSLRSDDTAVYYCARDPRGDDEPYWGQGTLVTVSSGGGGSGGGGSGGGGSEIVLTQSPLSLPVTLGQPASISCRSSQNLVYSDGNTYLSWFQQRPGQSPRRLIYKVSNRDSGVPDRFSGSGSGTDFTLKISRVEAEDIGVYYCMQGTHWPPRTFGQGTKVEIKRGLGGLVDYKDDDDK
For B1, the fibrinogen directed migration [1] was “inhibited BMS human breast cancer cell migration almost completely” and the “breast cancer cell arrest during blood flow” value (BMS breast cancer cells) was “efficiently inhibited”.

B2: Mut-12: RGE containing mutant version of scFv Bc-12 (protein)
chain: MAQVQLVQSGAEVKKPGASVKVSCKASGYTFSNYGITWVRQAPGQGLEWMGWINNGNTHYAQKFQGRVTMTTDTSTSTAYMELRSLRSDDTAVYYCARDPRGEDEPYWGQGTLVTVSSGGGGSGGGGSGGGGSEIVLTQSPLSLPVTLGQPASISCRSSQNLVYSDGNTYLSWFQQRPGQSPRRLIYKVSNRDSGVPDRFSGSGSGTDFTLKISRVEAEDIGVYYCMQGTHWPPRTFGQGTKVEIKRGLGGLVDYKDDDDK
B2 was tested, and the fibrinogen directed migration [1] was “only a minor effect” and the “breast cancer cell arrest during blood flow” value (BMS breast cancer cells) was “no effect”.
